# Where a chain is given by its changes, count along the chain named.
# B1: TR01H113-mF18/TR01L0011-mk1 (anti-CD3) (antibody, mouse IgG1, kappa)
# heavy: QVQLVESGGGVVQPGGSLRLSCAASGFTFSNAWMHWVRQAPGKGLEWVAQIKDKSQNYATYVAESVKGRFTISRADSKNSIYLQMNSLKTEDTAVYYCRYVHYAAGYGVDIWGQGTTVTVSSAKTTPPSVYPLAPGSAAQTNSMVTLGCLVKGYFPEPVTVTWNSGSLSSGVHTFPAVLQSDLYTLSSSVTVPSSTWPSETVTCNVAHPASSTKVDKKIVPRDCGCKPCICTVKEVSKVFIFPPKPKDVLTITLTPKVTCVVVDISKDDPEVQFSWFVDDVEVHTAQTQPREEQFNSTFRSVSELPIMHQDWLNGKEFKCRVNSAAFPAPIEKTISKTKGRPKAPQVYTIPPPKEQMAKDKVSLTCMITDFFPEDITVEWQWNGQPAENYKNTQPIMDTDGSYFVYSKLNVQKSNWEAGNTFTCSVLHEGLHNHHTEKSLSHSPGK
# light: DIVMTQSPLSLPVTPGEPASISCRSSQPLVHSNRNTYLHWYQQKPGQAPRLLIYKVSNRFSGVPDRFSGSGSGTDFTLKISRVEAEDVGVYYCGQGTQVPYTFGQGTKLEIKRADAAPTVSIFPPSSEQLTSGGASVVCFLNNFYPKDINVKWKIDGSERQNGVLNSWTDQDSKDSTYSMSSTLTLTKDEYERHNSYTCEATHKTSTSPIVKSFNRNEC
# B2: TX_3G4VH-mBS1001b/3G4VL-mk1//TR01H113-mBS1001a/TR01L0011-mk1 (anti-PS(3G4)//CD3) (bispecific antibody, mouse IgG1, kappa)
# heavy 1: EVQLQQSGPELEKPGASVKLSCKASGYSFTGYNMNWVKQSHGKSLEWIGHIDPYYGDTSYNQKFRGKATLTVDKSSSTAYMQLKSLTSEDSAVYYCVKGGYYGHWYFDVWGAGTTVTVSSAKTTPPSVYPLAPGSAAQTNSMVTLGCLVKGYFPEPVTVTWNSGSLSSGVHTFPAVLQSDLYTLSSSVTVPSSTWPSETVTCNVAHPASSTKVDKKIVPRDCGCKPCICTVKEVSKVFIFPPKPKDVLTITLTPKVTCVVVDISKDDPEVQFSWFVDDVEVHTAQTQPREEQFNSTFRSVSELPIMHQDWLNGKEFKCRVNSAAFPAPIEKTISKTKGRPKAPQVYTIPPPKEQMAKDKVSLTCMITDFFPEDITVEWQWNGQPAENYKNTQPIMRTDGSYFVYSKLNVQKSNWEAGNTFTCSVLHEGLHNHHTEKSLSHSPGK
# light 1: DIQMTQSPSSLSASLGERVSLTCRASQDIGSSLNWLQQGPDGTIKRLIYATSSLDSGVPKRFSGSRSGSDYSLTISSLESEDFVDYYCLQYVSSPPTFGAGTKLELKRADAAPTVSIFPPSSEQLTSGGASVVCFLNNFYPKDINVKWKIDGSERQNGVLNSWTDQDSKDSTYSMSSTLTLTKDEYERHNSYTCEATHKTSTSPIVKSFNRNEC
# heavy 2: B1 heavy with K408E
# light 2: B1 light
# B3: TR01H113-mF18.G3S2.mC9ECD57/TR01L0011-mk1 (anti-CD3-Clec9A ECD) (antibody, mouse IgG1, kappa)
# heavy: QVQLVESGGGVVQPGGSLRLSCAASGFTFSNAWMHWVRQAPGKGLEWVAQIKDKSQNYATYVAESVKGRFTISRADSKNSIYLQMNSLKTEDTAVYYCRYVHYAAGYGVDIWGQGTTVTVSSAKTTPPSVYPLAPGSAAQTNSMVTLGCLVKGYFPEPVTVTWNSGSLSSGVHTFPAVLQSDLYTLSSSVTVPSSTWPSETVTCNVAHPASSTKVDKKIVPRDCGCKPCICTVKEVSKVFIFPPKPKDVLTITLTPKVTCVVVDISKDDPEVQFSWFVDDVEVHTAQTQPREEQFNSTFRSVSELPIMHQDWLNGKEFKCRVNSAAFPAPIEKTISKTKGRPKAPQVYTIPPPKEQMAKDKVSLTCMITDFFPEDITVEWQWNGQPAENYKNTQPIMDTDGSYFVYSKLNVQKSNWEAGNTFTCSVLHEGLHNHHTEKSLSHSPGKGGGSGGGSKFFQVSSLVLEQQERLIQQDTALVNLTQWQRKYTLEYCQALLQRSLHSGTDASTGPVLLTSPQMVPQTLDSKETGSDCSPCPHNWIQNGKSCYYVFERWEMWNISKKSCLKEGASLFQIDSKEEMEFISSIGKLKGGNKYWVGVFQDGISGSWFWEDGSSPLSDLLPAERQRSAGQICGYLKDSTLISDKCDSWKYFICEKKAFGSCI
# light: B1 light
# B4: TR01H113-mF18.G3S2.mC9.131/TR01L0011-mk1 (anti-CD3-Clec9A CTLD) (antibody, mouse IgG1, kappa)
# heavy: QVQLVESGGGVVQPGGSLRLSCAASGFTFSNAWMHWVRQAPGKGLEWVAQIKDKSQNYATYVAESVKGRFTISRADSKNSIYLQMNSLKTEDTAVYYCRYVHYAAGYGVDIWGQGTTVTVSSAKTTPPSVYPLAPGSAAQTNSMVTLGCLVKGYFPEPVTVTWNSGSLSSGVHTFPAVLQSDLYTLSSSVTVPSSTWPSETVTCNVAHPASSTKVDKKIVPRDCGCKPCICTVKEVSKVFIFPPKPKDVLTITLTPKVTCVVVDISKDDPEVQFSWFVDDVEVHTAQTQPREEQFNSTFRSVSELPIMHQDWLNGKEFKCRVNSAAFPAPIEKTISKTKGRPKAPQVYTIPPPKEQMAKDKVSLTCMITDFFPEDITVEWQWNGQPAENYKNTQPIMDTDGSYFVYSKLNVQKSNWEAGNTFTCSVLHEGLHNHHTEKSLSHSPGKGGGSGGGSGSDCSPCPHNWIQNGKSCYYVFERWEMWNISKKSCLKEGASLFQIDSKEEMEFISSIGKLKGGNKYWVGVFQDGISGSWFWEDGSSPLSDLLPAERQRSAGQICGYLKDSTLISDKCDSWKYFICEKKAFGSCI
# light: B1 light
# Molecular target: human CD3 on Jurkat luciferase reporter T cells (human)
# Assay: cell-based or functional assay
binder,measurement,value
B1,"relative fold induction of luciferase, Jurkat luciferase reporter T cells co-cultured with dead (MTX treated) Ba/F3 cells",~20 fold
same,"relative luciferase signal (fold induction, maximum), Jurkat luciferase reporter T cells co-cultured with live (untreated) Ba/F3 cells",~22 fold
B2,"luciferase signal (fold induction) at 5 nM antibody, Jurkat reporter T cells co-cultured with dead Ba/F3 cells",16 fold
same,"luciferase signal (fold induction) at 25 nM antibody, Jurkat reporter T cells co-cultured with dead Ba/F3 cells",70 fold
B3,"relative luciferase activity (fold, maximum), Jurkat luciferase reporter T cells co-cultured with dead (MTX treated) Ba/F3 cells",~54 fold
same,"relative luciferase signal (fold induction), Jurkat luciferase reporter T cells co-cultured with live (untreated) Ba/F3 cells",~5 fold
B4,"relative luciferase activity (fold, maximum), Jurkat luciferase reporter T cells co-cultured with dead (MTX treated) Ba/F3 cells",~46 fold
same,"relative luciferase signal (fold induction), Jurkat luciferase reporter T cells co-cultured with live (untreated) Ba/F3 cells",~5 fold

# From patent publication US20220251166A1 (Chugai, published 2022)
